What was measured:
Assay type in all cases: cell-based
[1] = system: T-cells expressing cognate TCR
Jurkat cells = assay: Droplet co-culture of B and T cells, CD69 surface expression by flow cytometry; conditions: EDTA without added calcium
Description: One day prior to encapsulation, BOLETH cells were cultured in the presence of cognate or negative control peptides at a final concentration of 1 μM. Cells were collected the next day, centrifuged at 300 g for 5 min, then resuspended in B-cell medium at a final concentration of 1.4×10^7 cells/ml. These were further supplemented with same peptide and with or without EDTA. TCR-expressing Jurkat cells were centrifuged at 300 g and resuspended in B-cell medium at a concentration of 4×10^7 cells/ml. These were then further supplemented with respective concentrations of calcium. BOLETH, Jurkat, and detergent-containing fractions were connected to the microfluidic chip as described. Pressures were applied using an OB1 MK3+ and the droplet emulsion was collected into a 1.5 ml reaction tube containing oil.
Droplets were incubated at 37° C. in a 5% CO2 humidified incubator. Following overnight incubation, droplet emulsions were disrupted by adding two volumes of Pico-Break 1 (SPHERE FLUIDICS). Tubes were quickly inverted several times and centrifuged for 15 s at 300 rpm to facilitate separation of the cell-containing fraction. […] Tubes were centrifuged for 5 min at 300 g and cell pellets were subsequently resuspended in 100 μl of FACS buffer and were analyzed via flow cytometry. […]

[2] = system: Jurkat and SKW3 reporter cells; assay: Co-culture of TT2-expressing P10-NBV reporter Jurkat and SKW3 cells with cognate minigene-transduced B cells overexpressing Flag-tagged surface receptors; conditions: overexpression on minigene-transduced B cells
Source text: For the purpose of testing the different Flag-tagged surface receptors, InFusion-based cloning (TAKARA) was used to replace the mTagBFP2 reporter with the human codon optimized coding sequence of each candidate surface receptor, N-terminally or C-terminally tagged with a flexible 6× Flag to face the extracellular space. Specifically, the coding region of CD40, CD58, CD80, CD83, CD86, OX40L and 4-1BBL were cloned and tested.
Co-culture experiments were done using round bottom 96 well plates. P10-NBV Jurkat and SKW3 reporter cells and B cells are seeded 1 to 1 ratio into each well. Next day the cells are spun down and stained for Flow cytometry.

BOLETH cells = assay: Labeling of BOLETH cells with scFv-containing supernatant of transfected HEK293 cells, flow cytometry; conditions: for signal strength in tandem (T2A) scFv constructs relative to single scFv constructs: αCD19-HA and αCD20-V5 in one expression construct
Source text: Current generation T cell reporter systems consists of a cis-regulatory element comprising multiple copies of a synthetic promoter sequence (‘NBV’). […] The scFv is derived from a monoclonal αCD19-antibody (clone B43) binding to the B cell-specific transmembrane protein CD19, which is commonly used in monoclonal antibody-mediated immunotherapy (Uckun et al., 1988, Blood, 71(1):13-29). It is tagged with six HA epitope tags at its C-terminus, which facilitates its detection by flow cytometry. To optimize the current reporter and B cell labeling strategy, the potential of additional scFvs was tested. In particular, an αCD20-scFv derived from a human monoclonal antibody was evaluated that recognizes an epitope encompassing the membrane-proximal small-loop on the CD20 molecule, known as ofatumumab (clone 2F2) (Teeling et al., 2004, Blood, 104(6):1793-800). In order to test its functionality, scFv constructs were assembled in both the VH-VL and VL-VH configuration. The heavy and light chain domains were separated by a flexible polypeptide linker (G4S)3. To confirm that ofatumumab, as an scFv tagged with four copies of the V5 label, a small epitope-tag found on P and V proteins of the paramyxovirus, can efficiently label BOLETH cells and be detected by flow cytometry, the coding region was inserted into a CMV expression plasmid. HEK293 cells were transfected with the construct using TurboFect. As a negative control, HEK293 cells were transfected with a sfGFP-containing construct. Medium was exchanged 24 hours post-transfection. The scFv-containing supernatant (SN) was collected 72 hours post-transfection and was used to label BOLETH cells. Using fluorescent dye-conjugated antibodies recognizing the tagged scFvs, the amount of B cell bound scFv was measured by flow cytometry (FIG. 8A).
For optimizing scFv reporter constructs, constructs containing combinations of B43 and 2F2 tagged with either HA or V5 were cloned in pTwist CMV WPRE Neo BetaGlobin. For testing, HEK cells were transiently transfected with the plasmids using TurboFect (Fermentas). […]

TCR signaling = assay: Co-culture of Jurkat reporter cells carrying synthetic promoters with peptide-loaded B cells (GFP / HA reporter)
Description: Sleeping beauty transposon reporter constructs were transfected together with transposases into T cells, 5 to 1 ratio, using the Neon transfection system following the manufacturer's protocol. The voltages used for Jurkat cells were 1350V/[…]/3 pulse, and for SKW-3 cells 1500V, […] and 1 pulse were used as settings. 48-72 hours after transfection, the cells were selected using […] Blasticidin for Jurkat and […] Blasticidin for SKW-3 cells.
Co-culture experiments were performed using round-bottom 96-well plates. P10-NBV Jurkat and SKW-3 reporter cells and B cells were seeded at a 1:1 ratio into each well. For peptide co-culture experiments, either cognate peptide or mismatched peptide is added to each well and incubated for 16 hours. For minigene-based co-culture experiments, minigene-transduced B cells harboring either the cognate of mismatch minigenes were used. Next day the cells are spun down and stained for Flow cytometry.

Molecule: BT1 construct: minigene expression construct with first transmembrane domain of Bcap31 fused to the minigene N-terminus; SEQ ID NO:116 (DNA AVATFLYAEVFVVLLLCIPFI)
- T-cell activation with 400 AA minigene [1]: strong T-cell activation even with a 400 AA minigene
- stability of T-cell activation over time [1]: stable T-cell activation over time
- strength of minigene-induced T-cell activation [1]: strong T-cell activation, similar to the positive control
- presentation of the TetX_400_1 minigene relative to 2B construct ([1]; TT2 TCR): did not improve the presentation

Molecule: O=C(O)CN(CCN(CC(=O)O)CC(=O)O)CC(=O)O [EDTA]
- T-cell activation in presence of EDTA (chelation of calcium from the media) (Jurkat cells): T-cell activation is inhibited

Molecule: 4-1BBL: Flag-tagged surface receptor overexpressed on minigene-transduced B cells; SEQ ID NO:85
- minigene-based T cell activation [2]: potentiates minigene-based T cell activation

B1: αCD19-HA: secreted scFv derived from monoclonal αCD19 antibody clone B43, six HA epitope tags at C-terminus; SEQ ID NO:39 (protein)
scFv: EVQLVQSGAEVKKPGSSVKVSCKASGYAFSSYWMNWVRQAPGQGLEWMGQIWPGDSDTNYAQKFQGRVTITADESTSTAYMELSSLRSEDTAVYYCARRETTTVGRYYYAMDYWGQGTTVTVSSGGGGSGGGGSGGGGSDIQLTQSPSFLSASVGDRVTITCKASQSVDYSGDSYLNWYQQKPGKAPKLLIYDASNLVSGVPSRFSGSGSGTEFTLTISSLQPEDFATYYCQQSTENPWTFGGGTKLEIK
modifications: 6x HA tag
- HA MFI, HA-tagged αCD19 scFv compared to HA-tagged αCD20 scFv (BOLETH cells; HEK supernatant staining of B cells): higher MFIs
- signal strength in tandem (T2A) scFv constructs relative to single scFv constructs (BOLETH cells): remains unchanged
- signal strength in tandem (T2A) scFv constructs relative to single scFv constructs (BOLETH cells; listed as αCD19 scFv): retains similar binding capacity

B2: P10 promoter: synthetic TCR responsive promoter, SEQ ID NO:60 (nucleic acid)
DNA: AGAGATGGGCTAACAGGTATGAGCATGGGAAAAGCATGTTTCAAGAATTTGAGATGTATTTCCCAGAAAAGGAACATGATGAAAATGGTCAGAAAAGGCATTCTTAGGGTCCCCAGATGTCTGCCTTTTCCATTGATTTTCTTTCCTGGTTAATTGCGAGGCTTGCCTCAAGGTGGAAAACAGTATCGGTTTCCACTGGATCACTAGGTCACAGGGTTTGCCTTTTTCCAAACCTGCATCTCAATTTTACCTATGATTTGCATTAAATAACTTTGGAAAAATTGAAGTTCTTGAGAAGCCACCGCGCCCGGCCTCCTCTCCTTTTCCAAATTTATACATTTTGATTGGTGGGGAGATTCCATTATAGGGGCTGGAAAACCCCTTTACCATACCATGAATGTAACTGTACTGTTACAAAGTGGAAAATAACAGTTTCCACTTTTCGCAGCTCTTTGAGAGCAGGACTCTATTTTCCAGTCTCTTTATAAGCTTCATTCATAGTGAAGCTAACAGAAGTTTTTCCATGGTTAGATTGTGCACCGGGCTGTTTTTAAATGTAATATGATTTTCCATTTACTTATTTATCTTTGTAGTTTTATGACAAAGAAAATTTTCTGAGTTACTTTTGTATCCCCACCCCCTTAAAGAAAGGAGGAAAAACTGTTTCATACAGAAGGCGTTAATTGCA
- GFP and HA reporter gene expression in sleeping beauty constructs (TCR signaling; sleeping beauty constructs): high GFP and HA reporter gene expression

B3: NBVtf: synthetic transcription factor, fusion of NFAT N-terminus, Bob1 octamer-binding domain and VP16 transactivation domain; SEQ ID NO:76 (protein)
chain: MPSTSFPVPSKFPLGPAAAVFGRGETLGPAPRAGGTMKSAEEEHYGYASSNVSPALPLPTAHSTLPAPCHNLQTSTPGIIPPADHPSGYGAALDGGPAGYFLSSGHTRPDGAPALESPRIEITSCLGLYHNNNQFFHDVEVEDVLPSSKRSPSTATLSLPSLEAYRDPSCLSPASSLSSRSCNSEASSYESNYSYPYASPQTSPWQSPCVSPKTTDPEEGFPRGLGACTLLGSPRHSPSTSPRASVTEESWLGARSSRPASPCNKRKYSLNGRQPPYSPHHSPTPSPHGSPRVSVTDDSWLGNTTQYTSSAIVAAINALTTDSSLDLGDGVPVKSRKTTLEQPPSVALKVEPVGEDLGSPPPPADFAPEDYSSFQHIRKGGFCDQYLAVPQHPYQWAKPKPLSPTSYMSPTLPALDWQLPGSTSGSGKPGSGEGSTKGMLWQKPTAPEQAPAPARPYQGVRVKEPVKELLRRKRGHASSGAAPAPTAVVLPHQPLATYTTVGPSCLDMEGSVSAVTEEAALCAGWLSQPGGGGSGGGGSGGGGSTAPPTDVSLGDELHLDGEDVAMAHADALDDFDLDMLGDGDSPGPGFTPHDSAPYGALDMADFEFEQMFTDALGIDEYGG
- reporter gene expression (TCR signaling; Jurkat-P10NBV-TT2 cells, BOLETH cells loaded with 0.01 μM cognate peptide): further improves reporter gene expression
- reporter gene expression (TCR signaling; Jurkat-P10NBV-TT11 cells, BOLETH cells loaded with 0.1 μM cognate peptide): further improves reporter gene expression

B4: OX40L: Flag-tagged surface receptor overexpressed on minigene-transduced B cells; SEQ ID NO:84 (protein)
chain: ERVQPLEENVGNAARPRFERNKLLLVASVIQGLGLLLCFTYICLHFSALQVSHRYPRIQSIKVQFTEYKKEKGFILTSQKEDEIMKVQNNSVIINCDGFYLISLKGYFSQEVNISLHYQKDEEPLFQLKKVRSVNSLMVASLTYKDKVYLNVTTDNTSLDDFHVNGGELILIHQNPGEFCVLGSGAGGSGSGAGGSGDYKDDDDKGAGSGDYKDDDDKGAGSDYKDDDDKGGAGSDYKDDDDKGSGDYKDDDDKGAGSGDYKDDDDKGSGAGGSS
modifications: Flag tag
- minigene-based T cell activation [2]: potentiates minigene-based T cell activation
